Results reported in patent US20080279856A1, “Inhibition of Bradykinin Release” (Novo Nordisk Pharmaceuticals, Inc., priority 1999, published 2008).
Where a chain is given by its changes, count along the chain named. Names may count otherwise. “Also recorded” adds a separate entry of the source.

Columns and labels:
endothelial cells = assay: EC response to CD18 cross-linking in PMNs (Ca2+ and TEER); format: cell-based, human, bovine; settings: EC pre-treated
Description: Human umbilical vein endothelial cells (HUVEC) and bovine aorta endothelial cells (BAEC) are isolated and cultured as previously described (Gautam et al. 1998, Brit. J. Pharm. 125:1109-1114). HUVEC or BAEC in the first to fifth passages are detached by brief (2 min) trypsin-EDTA treatment (0.25% trypsin/0.01% EDTA) and replated onto either 0.2 μm pore size Anopore inorganic membrane or 3.0 μm pore size polycarbonate filters (Tissue Culture inserts, 10 mm; NUNC, Roskilde, Denmark). In order to promote cellular differentiation and enhance attachment of endothelial cells (ECs), the filters are pretreated with 50 μl Biomatrix 1 (167 μg/ml) and air-dried. […] The EC are grown to confluent monolayers, as assessed by daily microscopic observation and measurement of the electrical resistance across the monolayer (Gautam et al 1998, Brit. J. Pharm. 125:1109-1114).
Two different approaches are used for assessment of stimulation-induced changes in EC permeability. […] Electrical resistance across the EC monolayer is measured at 37° C. with electrodes in each compartment exactly positioned in relation to each other and to the monolayer. The electrical resistance of individual EC monolayers is obtained by subtracting the resistance of the corresponding naked filter coated with Biomatrix as measured prior to seeding of the endothelial cells. […]

[1] = test system: HBP-induced increase in EC permeability; assay: Inhibition of HBP-induced increase in EC permeability; format: cell-based, human, bovine; settings: peptide 3 μg/ml for 30 min, wash; HBP 75 μg/ml; N=6
Source text: Alternatively, HBP antagonists may be detected by culturing endothelial cells in the presence of HBP and in the presence and absence of a substance suspected of being an antagonist. In a specific embodiment, the antagonist is a monoclonal antibody that binds to at least one epitope of HBP, preferably human HBP, wherein said epitope binds to prekallikrein-H-kininogen complex and activates release of bradykinin. In a preferred embodiment, the monoclonal antibody is a human monoclonal antibody. In one embodiment, the antibody and HBP are preincubated together before incubating with endothelial cells for about 10 minutes at 37° C. The effect of the substance on the permeability of endothelial cells is determined by measuring transendothelial electrical resistance or determining albumin clearance as described in the Examples, infra. A decrease in permeability would indicate that the substance does act as an HBP antagonist.
For measurement of electrical resistance across the EC monolayer, the filter insert is transferred to a resistance measurement chamber (ENDOHM-12; World Precision Instruments, Sarasota, Fla., USA) modified so as to assure exact positioning of the electrodes in relation to each other and to the filter insert during repeated measurements. The chamber (lower compartment) and the filter insert (upper compartment) are filled with 2 ml and 400 μl culture medium, respectively. […] Direct readings of the electrical resistance are given by an ohmmeter (EVOM; World Precision Instruments, Sarasota, Fla., USA) connected to the electrodes of the resistance chamber. The electrical resistance of individual EC monolayers is obtained by subtracting the resistance of the corresponding naked filter coated with Biomatrix as measured prior to seeding of the endothelial cells.
Evans blue dye-conjugated albumin (EBA) is used as a marker for macromolecular permeability of the EC monolayers. […] In experiments where albumin permeability is analyzed, the culture medium in the upper compartment is exchanged for medium containing EBA. […]

[2] = test system: bradykinin-induced increase in EC permeability; assay: Inhibition of bradykinin-induced increase in EC permeability; format: cell-based, human, bovine; settings: peptide 3 μg/ml for 30 min; bradykinin 100 nM at 15 min after HBP
Description: For measurement of electrical resistance across the EC monolayer, the filter insert is transferred to a resistance measurement chamber (ENDOHM-12; World Precision Instruments, Sarasota, Fla., USA) modified so as to assure exact positioning of the electrodes in relation to each other and to the filter insert during repeated measurements. The chamber (lower compartment) and the filter insert (upper compartment) are filled with 2 ml and 400 μl culture medium, respectively. All measurements are made at 37° C. with the equipment placed in a cell culture incubator. Direct readings of the electrical resistance are given by an ohmmeter (EVOM; World Precision Instruments, Sarasota, Fla., USA) connected to the electrodes of the resistance chamber. The electrical resistance of individual EC monolayers is obtained by subtracting the resistance of the corresponding naked filter coated with Biomatrix as measured prior to seeding of the endothelial cells.
Before transferring the filter inserts to the resistance measurement chamber (kept at 37° C.), the medium in the insert and in the chamber is replaced with fresh culture medium (37° C.) supplemented with 10 mM Hepes. HBP (25-100 μg/ml) or PMN secretion product is added either to the upper or the lower compartment and change in transendothelial electrical resistance is measured every minute until a plateau phase is reached, and thereafter at 5-min intervals. In separate experiments, PMNs (2×10^6) preincubated with mAb IB4 (10 μg/ml) are added to the upper compartment (PMN:EC ratio=10:1) and allowed to sediment for 10 min. Activation of the PMNs is induced through antibody crosslinking of leukocytic CD18 by addition of goat anti-mouse IgG F(ab′)2 diluted 1:20. In experiments where albumin permeability across the EC monolayer is studied, the medium in the insert contained EBA. During the experiment, the filter insert is moved at 5-10 min intervals to new wells containing fresh medium. All incubations are made at 37° C. After the experiment, the medium in the lower wells is aspirated and analyzed for EBA content.

EC permeability = assay: Leakage model: bradykinin release and EC permeability induced by HBP variants; format: cell-based
aprotinin = aprotinin (Bos taurus, UniProt P00974); assay: Ability of HBP variants to bind aprotinin; format: binding
[3] = 3H-LPS binding to HBP, scintillation proximity assay
Description: The affinity for lipopolysaccharide (3H-LPS) is measured by scintillation proximity assay technology (SPA) as described (Linde, V., Bjørn, S., Kastrup, J. S., and Flodgaard, H., 2000, Biotechniques 28:218-222). All samples are repeated in triplicates.

125I-BPTI = 125I-BPTI binding to HBP, scintillation proximity assay; design: species or system bovine
Description: (§1) The relative affinities of HBP and the mutants are determined by performing competition studies with […] of unlabeled BPTI.

human monocytes = assay: LPS induced IL-6 release from monocytes; format: cell-based; settings: 24 hours, serum-free medium
Source text: Human monocytes are isolated and treated as described (Rasmussen, P. B., Bjørn, S., Hastrup, S., Nielsen, P. F., Norris, K., Thim, L., Wiberg, F. C., and Flodgaard, H. (1996) FEBS Lett. 390: 109-112), with the exception that 1% non-essential amino acids is excluded from the medium.

[4] = 125I-BPTI binding to HBP, scintillation proximity assay; design: species or system bovine; settings: competition with unlabeled BPTI; read-out: apparent IC50 of 125I-BPTI binding
Description: as §1

## CC(=O)OCOC(=O)CN(CC(=O)OCOC(C)=O)c1ccccc1OCCOc1ccccc1N(CC(=O)OCOC(C)=O)CC(=O)OCOC(C)=O [BAPTA AM]
Endothelial cells
  effect on change in TEER: completely inhibited
  effect on rise in EC free intracellular Ca2+: completely inhibited

## HKHGHGHHKKNKGKKNGKH (listed as Homo sapiens) [HKH20]
[1]
  effect on HBP-induced increase in EC permeability: prevented
[2]
  effect on bradykinin-induced permeability change: but not the permeability change induced by subsequent administration of bradykinin

## SDDDWIPDIQTDPNGLSFNPISDFPDTTSPK (listed as Homo sapiens) [SDD31]
[1]
  effect on HBP-induced increase in EC permeability: largely prevented
[2]
  effect on bradykinin-induced permeability change: persisted

B1: HBP mutant (G175N): HBP mutant unable to bind aprotinin, three dimensional structure unaltered (protein)
chain: IVGGRKARPRQFPFLASIQNQGRHFCGGALIHARFVMTAASCFQSQNPGVSTVVLGAYDLRRRERQSRQTFSISSMSENGYDPQQNLNDLMLLQLDREANLTSSVTILPLPLQNATVEAGTRCQVAGWGSQRSGGRLSRFPRFVNVTVTPEDQCRPNNVCTGVLTRRGGICNGDNGTPLVCEGLAHGVASFSLGPCGRGPDFFTRVALFRDWIDGVLNNPGP
EC permeability
  induction of bradykinin release and EC permeability: induces bradykinin release and increase in EC permeability
aprotinin
  ability to bind aprotinin: unable to bind aprotinin

B2: porcine HBP: Porcine heparin-binding protein, very homologous to human HBP, unable to bind aprotinin (protein)
chain: IVGGRRAQPQEFPFLASIQKQGRPFCAGALVHPRFVLTAASCFRGKNSGSASVVLGAYDLRQQEQSRQTFSIRSISQNGYDPRQNLNDVLLLQLDREARLTPSVALVPLPPQNATVEAGTNCQVAGWGTQRLRRLFSRFPRVLNVTVTSNPCLPRDMCIGVFSRRGRISQGDRGTPLVCNGLAQGVASFLRRRFRRSSGFFTRVALFRNWIDSVLNNPP
aprotinin
  ability to bind aprotinin: unable to bind aprotinin

B3: [G175Q]HBP: Mutant of human HBP with G175Q in the BPTI binding site (protein)
chain: B1 chain with N175Q
[3]
  lipid A/LPS binding property: comparable to that of native HBP
125I-BPTI
  binding of BPTI: eliminated; also recorded: no binding
Human monocytes
  stimulation of LPS induced cytokine-release (IL-6): only a very limited stimulation

B4: [R23S,F25E]HBP: Mutant of human HBP with R23S and F25E in the putative lipid A/LPS binding site (protein)
chain: B1 chain with R23S, F25E, N175G
[3]
  lipid A/LPS binding property: do not affect
[4]
  IC50: ~7 nM
125I-BPTI
  binding capacity for 125I-BPTI: larger binding capacity as compared to HBP
  binding of BPTI: do not affect; also recorded: binds BPTI
Human monocytes
  stimulation of LPS induced cytokine-release (IL-6): do not affect
